Laboratory results from patent US20240382610A1 (TALLAC THERAPEUTICS, published 2024).

T1: Human nectin-4 ECD-6His (TNT-175) (human, UniProt Q96NY8 32-349)
T1 construct: the entry holds the extracellular domain with the C-terminal 6His tag
T1 sequence: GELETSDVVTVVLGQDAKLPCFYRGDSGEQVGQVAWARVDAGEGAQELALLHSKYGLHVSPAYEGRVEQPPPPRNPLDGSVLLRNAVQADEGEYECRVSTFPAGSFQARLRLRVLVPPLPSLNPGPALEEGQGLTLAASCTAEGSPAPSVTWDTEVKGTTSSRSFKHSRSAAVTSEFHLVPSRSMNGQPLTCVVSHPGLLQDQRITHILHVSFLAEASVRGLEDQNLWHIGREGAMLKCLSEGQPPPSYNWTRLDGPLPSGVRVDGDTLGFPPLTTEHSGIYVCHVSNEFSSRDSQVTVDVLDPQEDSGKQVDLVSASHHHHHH

T2: human nectin-4 on cells (human, UniProt Q96NY8 32-510)
T2 construct: whole, on cells; also called PVRL4
T2 sequence (looked up): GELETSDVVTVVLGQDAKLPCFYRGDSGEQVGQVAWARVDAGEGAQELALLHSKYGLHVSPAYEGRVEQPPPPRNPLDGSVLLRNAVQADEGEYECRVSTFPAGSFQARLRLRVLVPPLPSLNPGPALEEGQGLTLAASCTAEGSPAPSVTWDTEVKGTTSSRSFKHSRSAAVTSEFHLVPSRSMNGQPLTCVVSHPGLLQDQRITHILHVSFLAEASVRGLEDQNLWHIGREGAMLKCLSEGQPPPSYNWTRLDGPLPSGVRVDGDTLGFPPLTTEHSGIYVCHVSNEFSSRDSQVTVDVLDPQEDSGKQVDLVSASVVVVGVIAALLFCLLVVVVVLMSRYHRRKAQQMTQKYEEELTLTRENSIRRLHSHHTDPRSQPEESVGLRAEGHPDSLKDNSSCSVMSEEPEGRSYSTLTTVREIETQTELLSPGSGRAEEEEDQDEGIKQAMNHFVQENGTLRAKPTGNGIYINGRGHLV

B1: TNT-191 (antibody, mouse IgG2a, kappa)
heavy: EVQLLESGGGVVQPGRSLRLSCAASGFTFSSYGMHWVRQAPGKGLEWVAVISYDGSNKYYADSVKGRFTISRDNSKNTLYLQMNSLRAEDTAVYYCAKSSYYDYVWGSYRYTDAFDIWGQGTMVTVSSAKTTAPSVYPLAPVCGDTTGSSVTLGCLVKGYFPEPVTLTWNSGSLSSGVHTFPAVLQSDLYTLSSSVTVTSSTWPSQSITCNVAHPASSTKVDKKIEPRGPTIKPCPPCKCPAPNLLGGPSVFIFPPKIKDVLMISLSPIVTCVVVDVSEDDPDVQISWFVNNVEVHTAQTQTHREDYNSTLRVVSALPIQHQDWMSGKEFKCKVNNKDLPAPIERTISKPKGSVRAPQVYVLPPPEEEMTKKQVTLTCMVTDFMPEDIYVEWTNNGKTELNYKNTEPVLDSDGSYFMYSKLRVEKKNWVERNSYSCSVVHEGLHNHHTTKSFSRTPGRPQGFGPP
light: EIVLTQSPATLSLSPGERATLSCRASQSVSSSYLAWYQQKPGQAPRLLIYGASSRATGIPDRFSGSGSGTDFTLTISRLEPEDFAVYYCQQYNNWWTFGQGTKVDIKRADAAPTVSIFPPSSEQLTSGGASVVCFLNNFYPKDINVKWKIDGSERQNGVLNSWTDQDSKDSTYSMSSTLTLTKDEYERHNSYTCEATHKTSTSPIVKSFNRNEC
B2: TNT-190 (antibody, mouse IgG2a, kappa)
heavy: EVQLVQSGGGLVKPGGSLRLSCAASGFTFSDYYMSWVRQAPGKGLEWVSAISGSGGSTYYADSVKGRFTISRDNSKNTLYLQMNSLRAEDTAVYYCARDEGYYYMDVWGKGTTVTVSSAKTTAPSVYPLAPVCGDTTGSSVTLGCLVKGYFPEPVTLTWNSGSLSSGVHTFPAVLQSDLYTLSSSVTVTSSTWPSQSITCNVAHPASSTKVDKKIEPRGPTIKPCPPCKCPAPNLLGGPSVFIFPPKIKDVLMISLSPIVTCVVVDVSEDDPDVQISWFVNNVEVHTAQTQTHREDYNSTLRVVSALPIQHQDWMSGKEFKCKVNNKDLPAPIERTISKPKGSVRAPQVYVLPPPEEEMTKKQVTLTCMVTDFMPEDIYVEWTNNGKTELNYKNTEPVLDSDGSYFMYSKLRVEKKNWVERNSYSCSVVHEGLHNHHTTKSFSRTPGRPQGFGPP
light: EIVLTQSPATLSLSPGERATLSCRASQSVSSYLAWYQQKPGQAPRLLIYDASNRATGIPARFSGSGSGTDFTLTISSLQAEDFATYYCQQSYSTRFGGGTKVEIKRADAAPTVSIFPPSSEQLTSGGASVVCFLNNFYPKDINVKWKIDGSERQNGVLNSWTDQDSKDSTYSMSSTLTLTKDEYERHNSYTCEATHKTSTSPIVKSFNRNEC

Key:
[1] = molecular target: T1, Human nectin-4 ECD-6His (TNT-175); test: competition ELISA; nectin-4 ECD premixed with TNT202, captured by the coat antibody; % of signal without premix antibody
Experimental: (§1) Competition experiments of nectin-4 antibodies. ELISA plates were coated overnight at 4° C. with goat anti-mouse IgG at […] in PBS. […] As positive control, nectin-4 was diluted at same concentrations without a premix antibody. Two wells per plate were allocated for diluent only as negative/background control. Plates were washed as previously, 50 μL/well of premix was added to each plate and incubated for one hour. Plates were washed then incubated at room temperature for one hour with Rabbit anti 6× HIS HRP diluted 1:4,000 in diluent. Plates were washed once more and incubated at room temperature for 20 minutes with 50 μL/well of ABTS substrate. […] Binding was measured as an Optical Density (O.D.) value normalized to background and calculated as a percentage of positive control at the lowest nectin-4 dilution for greatest resolution.

[2] = molecular target: T1, Human nectin-4 ECD-6His (TNT-175); test: competition ELISA; nectin-4 ECD premixed with TNT207, captured by the coat antibody; % of signal without premix antibody
Experimental: as §1

[3] = molecular target: T1, Human nectin-4 ECD-6His (TNT-175); test: competition ELISA; nectin-4 ECD premixed with TNT209, captured by the coat antibody; % of signal without premix antibody
Experimental: as §1

[4] = molecular target: T1, Human nectin-4 ECD-6His (TNT-175); test: competition ELISA; nectin-4 ECD premixed with TNT211, captured by the coat antibody; % of signal without premix antibody
Experimental: as §1

human nectin-4 on cells = molecular target: T2, human nectin-4 on cells; test: flow cytometry MFI, MNK74 (nectin-4 positive) over AGS (negative)
Experimental: Cell binding of nectin-4 antibodies. Cell binding of the nectin-4 antibodies was also assessed. MNK74 (nectin-4 positive) and AGS (nectin-4 negative) cells were obtained from ATCC and cultured according to their protocols. Cells were detached with TrypLE (Gibco) and washed by centrifugation for five minutes at 400×g with FACS buffer (PBS+2% FBS). Cells were resuspended in FACS buffer, plated in 96-well format (0.25 e6/well) then pelleted by centrifugation for five minutes at 400×g. Cells were stained at 4° C. in Fixable Viability Dye eFluor 506 (eBioscience) diluted 1:4,000 in PBS. […] Cells were centrifuged, washed once in FACS buffer and stained at 4° C. with Goat F(ab′)₂ anti-Mouse IgG APC (Southern Biotech) diluted 1:400 in FACS buffer for 30 minutes or appropriate anti-human IgG. Cells were centrifuged, washed twice and fixed in 0.5% paraformaldehyde. Cells were analyzed on Attune NxT Flow Cytometer (Thermo Fisher), with subsequent data analysis by Flowjo 10.7 (BD). Dead cells were excluded by gating on the eFluor 506-negative population. […] Binding was assessed by median fluorescent intensity.

[5] = molecular target: T1, Human nectin-4 ECD-6His (TNT-175); test: competition ELISA; nectin-4 ECD premixed with TNT210, captured by the coat antibody; % of signal without premix antibody
Experimental: as §1

[6] = molecular target: T1, Human nectin-4 ECD-6His (TNT-175); test: competition ELISA; nectin-4 ECD premixed with TNT203, captured by the coat antibody; % of signal without premix antibody
Experimental: as §1

[7] = molecular target: T1, Human nectin-4 ECD-6His (TNT-175); test: SPR ProteOn, mAb on protein A
Experimental: Initial testing of binding of nectin-4 antibodies to nectin-4. […] Biotinylated protein A (15 μg/mL) was immobilized to the surface of an NLC chip. 30 nM of purified mAb supernatant was diluted in PBS-T and captured over the protein A surface. Serial dilutions of human nectin-4 were injected over the mAb-coated chips, and binding kinetics were determined. Chips were regenerated using 4:1 v/v of IgG elution butter/4M NaCl.

[8] = molecular target: T1, Human nectin-4 ECD-6His (TNT-175); test: competition ELISA; nectin-4 ECD premixed with TNT212, captured by the coat antibody; % of signal without premix antibody
Experimental: as §1

[9] = molecular target: T1, Human nectin-4 ECD-6His (TNT-175); test: competition ELISA; nectin-4 ECD premixed with TNT201, captured by the coat antibody; % of signal without premix antibody
Experimental: as §1

[10] = molecular target: T1, Human nectin-4 ECD-6His (TNT-175); test: competition ELISA; nectin-4 ECD premixed with TNT208, captured by the coat antibody; % of signal without premix antibody
Experimental: as §1

[11] = molecular target: T1, Human nectin-4 ECD-6His (TNT-175); test: competition ELISA; nectin-4 ECD premixed with TNT204, captured by the coat antibody; % of signal without premix antibody
Experimental: as §1

[12] = molecular target: T1, Human nectin-4 ECD-6His (TNT-175); test: competition ELISA; nectin-4 ECD premixed with TNT205, captured by the coat antibody; % of signal without premix antibody
Experimental: as §1

[13] = molecular target: T1, Human nectin-4 ECD-6His (TNT-175); test: competition ELISA; nectin-4 ECD premixed with TNT206, captured by the coat antibody; % of signal without premix antibody
Experimental: as §1

Binder | % of Positive [1] | % of Positive [2] | % of Positive [3] | % of Positive [4] | Fold-change of binding to MNK74 compared to control AGS (human nectin-4 on cells) | % of Positive [5] | % of Positive [6] | Kd [7] | koff [7] | kon [7] | % of Positive [8] | % of Positive [9] | % of Positive [10] | % of Positive [11] | % of Positive [12] | % of Positive [13]
B1 | 4.8% | 2.5% | 30.4% | 24.6% | 5 fold | 2.4% | 32.7% | 4.3 nM | 0.000983 s⁻¹ | 229000 M⁻¹ s⁻¹ | 3% | 1.5% | 5.3% | 4.5% | 54.8% | 11.4%
B2 | 0.8% | 0.3% | 3.4% | 2.4% | 5.1 fold | 0.3% | 3.5% | 31.4 nM | 0.00831 s⁻¹ | 265000 M⁻¹ s⁻¹ | 1.5% | 1.2% | 0.3% | 0.7% | 13.5% | 0.5%
